Test results published in patent US20230146533A1, “KERATIN BD-10, PREPARATION METHOD THEREFOR AND PHARMACEUTICAL COMPOSITION AND USE THEREOF” (INSTITUTE OF MATERIA MEDICA, CHINESE ACADEMY OF MEDICAL …, priority 2019, published 2023).

Columns and labels:
Format in all cases: in vivo, ICR mice
[1] = tested on: mice cough induced by ammonia water; assay: Antitussive test, cough induced by ammonia water in mice; conditions: for Incubation period (cough) / Number of coughs: 10% ammonia water atomized 10 seconds one hour later, X ± SEM; for Number of coughs: coughs within 2 minutes
Description: Animals: male ICR mice; Drugs and reagents: dextromethorphan hydrobromide, ammonia water, 0.2% CMC-Na, protein BD-10; Apparatus: Compressed nebulizer (403T type), balance (XS105DU type). Experiment grouping: • Solvent control group; • Dextromethorphan 15 mg/kg group; • Protein BD-10, 20 mg/kg group, 50 mg/kg group.
Dextromethorphan and different doses of protein BD-10 (administration volume 10 ml/kg) were given orally in groups, and the solvent control group was given the same volume of distilled water. One hour later, mice were put into a sealed box and atomized 10% ammonia water for 10 seconds, and then observed and recorded the incubation period of cough in mice and the number of coughs in 2 minutes.
Record the time point of oral administration, the time point of atomization experiment, the incubation period of mice cough and the number of coughs within 2 minutes, respectively. The incubation period of cough refers to the number of seconds from the start of the atomization of ammonia to the occurrence of cough. The performance of coughing in mice is based on contraction of their abdominal muscles (breast contraction) and opening their mouths at the same time. Calculate the mean and standard error of each group of data, and use TTEST to compare the model group with other groups, and P<0.05 is considered as a significant difference.

[2] = tested on: phenol red excretion in mice; assay: Expectorant test, phenol red excretion method in mice; conditions: for Phenol red excretion: 2.5% phenol red i.p. one hour later, trachea after 30 minutes, X ± SEM
Description: Animals: male ICR mice; Drugs and reagents: Mucosolvan (ambroxol hydrochloride tablets), phenol red, sodium bicarbonate, protein BD-10; Instruments: centrifuge (Sigma-3K15 type), balance (XS105DU type), Microplate tester (BIO-TEK type). Experiment grouping: • Solvent control group; • Mucosolvan 30 mg/kg group; • Protein BD-10, 20 mg/kg group, 50 mg/kg group.
The animals were fasted and water was taken freely 16 hours before the experiment. Orally administered Mucosolvan and different doses of protein BD-10 (administration volume 10 ml/kg) in groups, and the solvent control group was given the same volume of distilled water. One hour later, 2.5% phenol red solution was injected intraperitoneally. Mice were sacrificed by neck dislocation after 30 minutes. Take a trachea from below the thyroid cartilage to the branch of the trachea, and put the trachea into 3 ml 5% NaHCO3 solution and let it stand for 3 hours. Take 1 ml of the supernatant and centrifuge at 3000 rpm for 5 minutes. Measure and record the absorbance at 546 nm. According to the standard curve of phenol red, the excretion of phenol red was calculated.
Record the time point of oral administration, the time point of intraperitoneal injection of 2.5% phenol red solution, and the time point of taking the trachea respectively; The absorbance of each group of samples was measured by the microplate reader at 546 nm, Calculate the excretion of phenol red according to the standard curve of phenol red. Calculate the mean and standard error of the data in each group, and use TTEST to compare the solvent control group with other groups, and P<0.05 is considered as a significant difference.

[3] = tested on: PTZ-induced epilepsy in mice; assay: Pentylenetetrazole (PTZ) induced epilepsy in mice; conditions: for Grade IV seizure rate / mortality rate / Grade III seizure incubation period / Grade IV seizure incubation period / Cases of deaths / Cases of Grade IV: PTZ 65 mg/kg i.p.; for Grade IV seizure rate / mortality rate: 10 mice; for Grade III seizure incubation period / Grade IV seizure incubation period: mean ± SEM; for Grade IV seizure incubation period: mice not reaching Grade IV recorded as maximum 900 seconds; for Cases of deaths / Cases of Grade IV: of 10 mice; for Cases of Grade IV: 15 minutes observation
Description: Medicines: Pentylenetetrazol (PTZ), Retigabine, Protein BD-10.
Experiment grouping: • Model group; • Retigabine 60 mg/kg group; • Protein BD-10, 50 mg/kg group, 200 mg/kg group;
The drug was administered once in the afternoon the day before modeling, On the day of modeling, PTZ-65 mg/kg (modeling agent) was injected intraperitoneal 1 hour after the test drug was administered intragastrically, and the positive drug can be administered once half an hour before modeling. Continue to observe for 15 minutes after injection of PTZ.
Observation index: (1)Seizure situation: the time of seizures from Grade III to Grade VI; (2)Death situation
Seizure grade: Refer to Racine grading standard: Grade 0: No response; Grade I: manifested as twitching of facial muscles or the corners of the mouth; Grade II: can nod; Grade III: twitching of one limb; Grade IV: rigidity or body twitching; Grade V: generalized epilepsy (generalized tonic seizures).
Count the cases of seizures and deaths in each group of mice in the experiment; Grade III and IV incubation period. The incubation period of mice that have not attacked to Grade IV is recorded as the maximum of 900 seconds. Chi-square test was used for statistics of the number of cases. Calculate the mean and standard error of the incubation period. Use TTEST to compare the model group with other groups, and P<0.05 is considered as a significant difference.

B1: BD-10: recombinant keratin with amino acid sequence SEQ ID NO:1, expressed in E. coli inclusion bodies, band around 55 kD (protein, listed as Bos taurus)
chain: MSCRSYRISPGYSVTRTFSSCSAVAPKTGSRCCITAAPYRGVSCYRGLTGFGSRSVSALGSCGPRIAVGGFRAGSCNRSFGYRSGGVGGLSPPCITTVSVNESLLTPLNLEIDPNAQCVKHEEKEQIKNLNSRFAAFIDKVRFLEQQNKLLETKWQFYQNQRCCESNLEPLFNGYIETLRREAEHVEADGGRLASELNHVQEVLEGYKKKYEEEVALRATAENEFVVLKKDVDCAYLRKSDLEANVEALVEESNFLKRLYDEEIQILNAHISDTSVIVKMDNSRDLNMDCVVAEIKAQYDDIASRSRAEAESWYRNKCEEMKATVIRHGETLRRTKEEINELNRIIQRLTAEIENAKCQRTKLEAAVAEAEQQGEAALNDARCKLAGLEEALQKAKQDMACLLKEYQEVMNSKLGLDIEIATYRRLLEGEEQRLCEGVGSVNVCVSSSRGGVTCGGLTYSTTAGRQIASGPVATGGSITVLAPDSCVPCQPRASSFSCGSSRSVRFA
Q: What does the source list for B1?
A: Incubation period (cough) ([1]; BD-10 20 mg/kg oral): 31.4 ± 2.6 s; Number of coughs ([1]; BD-10 20 mg/kg oral): 55.3 ± 4.2; Incubation period (cough) ([1]; BD-10 50 mg/kg oral): 29.4 ± 3.0 s; Number of coughs ([1]; BD-10 50 mg/kg oral): 59.8 ± 3.9; Effect on incubation period and number of coughs (in words) ([1]; BD-10, dose not stated, not statistically significant): has a tendency to prolong the incubation period and reduce the number of coughs; Effect on excretion of phenol red (in words) ([2]; BD-10 20 mg/kg and 50 mg/kg dose groups, vs solvent control group P<0.05): significantly increased the excretion of phenol red; Phenol red excretion ([2]; BD-10 20 mg/kg oral): 0.746 ± 0.035 µg/mL; Phenol red excretion ([2]; BD-10 50 mg/kg oral): 0.668 ± 0.063 µg/mL; Expectorant effect (in words, summary) ([2]; BD-10, dose not stated): has obvious expectorant effect; Grade IV seizure rate ([3]; BD-10 50 mg/kg intragastric): 80%; mortality rate ([3]; BD-10 50 mg/kg intragastric): 0%; Grade III seizure incubation period ([3]; BD-10 50 mg/kg intragastric): 63 ± 2 s; Grade IV seizure incubation period ([3]; BD-10 50 mg/kg intragastric): 296 ± 106 s; Cases of deaths ([3]; BD-10 50 mg/kg intragastric): 0; Cases of Grade IV ([3]; BD-10 50 mg/kg intragastric): 8; Grade IV seizure rate ([3]; BD-10 200 mg/kg intragastric): 70%; mortality rate ([3]; BD-10 200 mg/kg intragastric): 0%; Grade III seizure incubation period ([3]; BD-10 200 mg/kg intragastric): 81 ± 9 s; Grade IV seizure incubation period ([3]; BD-10 200 mg/kg intragastric): 359 ± 120 s; Cases of deaths ([3]; BD-10 200 mg/kg intragastric): 0; Cases of Grade IV ([3]; BD-10 200 mg/kg intragastric): 7; Effect on incubation period of Grade IV epilepsy (in words) ([3]; BD-10, PTZ model, no statistical difference compared with the model group): has a tendency to extend the incubation period
